Data taken from the supplement of paper PMC10724198.
± gives the standard deviation of the averaged measurements.

Legend:
[1] = test system: Saccharomyces cerevisiae; test: protein stability index of tFT-peptide fusion (C-terminal peptide) (PSI (0-1 scale)); higher = more stable (slower turnover); conditions: genetic background: wild type; temperature: 30 C
[2] = test system: Saccharomyces cerevisiae; test: as above
Experimental: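 MPS profiling in S. cerevisiae of the tFT-X12 degron library: putative degron peptides plus stable controls, 12 aa, fused to the C-terminus of a sfGFP-mCherry timer. Cells are FACS-sorted into 8 mCherry/sfGFP bins and deep-sequenced. PSI runs from 0 (unstable) to 1 (stable). Backgrounds are wild type, das1Δ and doa10Δ at 30 °C, and wild type, das1Δ, cdc34-1 and cdc53-1 at 37 °C; 2-3 technical replicates each.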

[3] = genetic background: cdc34-1, temperature: 37 C
[4] = genetic background: cdc53-1, temperature: 37 C
[5] = genetic background: das1 deletion, temperature: 30 C
[6] = genetic background: das1 deletion, temperature: 37 C
[7] = genetic background: doa10 deletion, temperature: 30 C
[8] = genetic background: wild type, temperature: 30 C
[9] = genetic background: wild type, temperature: 37 C
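Also: PSI is a weighted mean of sequencing reads over stability bins, variants kept only with over 10 reads, mCherry proximal and sfGFP distal, peptide attached via GGGS linker.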

| Sequence | protein stability index [1] | protein stability index [2, 3] | protein stability index [2, 4] | protein stability index [2, 5] | protein stability index [2, 6] | protein stability index [2, 7] | protein stability index [2, 8] | protein stability index [2, 9] |
| --- | --- | --- | --- | --- | --- | --- | --- | --- |
| CLQYRACLILLT | 0.425 ± 0.0091 | 0.406 ± 0.014 | 0.3653 ± 0.0014 | 0.365 ± 0.015 | 0.494 ± 0.0041 | 0.456 ± 0.0093 | 0.343 ± 0.015 | 0.425 ± 0.0086 |
| CLSGPFRSLAVF | 0.425 ± 0.038 | 0.545 ± 0.029 | 0.6286 ± 0.0025 | 0.485 ± 0.031 | 0.6326 ± 0.0051 | 0.341 ± 0.009 | 0.365 ± 0.023 | 0.5263 ± 0.0018 |
| CMILVACFYLPS | 0.321 ± 0.004 | 0.285 ± 0.033 | 0.441 ± 0.061 | 0.29 ± 0.024 | 0.455 ± 0.017 | 0.248 ± 0.0063 | 0.294 ± 0.017 | 0.428 ± 0.01 |
| CMYTILRHKINN | 0.296 ± 0.054 | 0.628 ± 0.047 | 0.621 ± 0.075 | 0.649 ± 0.024 | 0.763 ± 0.023 | 0.129 ± 0.036 | 0.147 ± 0.058 | 0.279 ± 0.029 |
| CPVSRHLLVLYW | 0.432 ± 0.029 | 0.413 ± 0.0094 | 0.4424 ± 0.0029 | 0.345 ± 0.029 | 0.4933 ± 0.0031 | 0.402 ± 0.017 | 0.331 ± 0.019 | 0.47 ± 0.012 |
| CQVSEWIRYRFL | 0.417 ± 0.02 | 0.681 ± 0.074 | 0.743 ± 0.01 | 0.637 ± 0.034 | 0.734 ± 0.018 | 0.247 ± 0.0032 | 0.252 ± 0.0098 | 0.386 ± 0.016 |
| CRAAMYSFFLNF | 0.427 ± 0.025 | 0.674 ± 0.063 | 0.75 ± 0.017 | 0.651 ± 0.037 | 0.7584 ± 0.0043 | 0.236 ± 0.0046 | 0.299 ± 0.0089 | 0.529 ± 0.022 |
| CRLFFVFVFFWW | 0.253 ± 0.095 | 0.22 ± 0.04 | 0.179 ± 0.024 | 0.253 ± 0.03 | 0.322 ± 0.0059 | 0.311 ± 0.01 | 0.249 ± 0.022 | 0.274 ± 0.023 |
| CSFCSGMILLLS | 0.418 ± 0.0062 | 0.522 ± 0.055 | 0.557 ± 0.018 | 0.433 ± 0.02 | 0.583 ± 0.0064 | 0.391 ± 0.004 | 0.323 ± 0.044 | 0.527 ± 0.028 |
| CTAWWVKGVAVK | 0.525 ± 0.049 | 0.622 ± 0.033 | 0.6395 ± 0.0018 | 0.443 ± 0.031 | 0.643 ± 0.023 | 0.424 ± 0.028 | 0.435 ± 0.018 | 0.624 ± 0.029 |
| CVILVSFFCYSA | 0.2201 ± 0.00089 | 0.142 ± 0.021 | 0.221 ± 0.014 | 0.142 ± 0.059 | 0.322 ± 0.0071 | 0.119 ± 0.0041 | 0.132 ± 0.059 | 0.284 ± 0.0073 |
| CVLLVFLHLCLA | 0.381 ± 0.0019 | 0.292 ± 0.0051 | 0.392 ± 0.022 | 0.283 ± 0.027 | 0.4448 ± 0.0025 | 0.256 ± 0.014 | 0.263 ± 0.049 | 0.402 ± 0.0075 |
| CVLVLLLRLAFL | 0.4885 ± 0.0022 | 0.5506 ± 0.0053 | 0.5516 ± 0.0013 | 0.44 ± 0.032 | 0.5995 ± 0.0041 | 0.467 ± 0.027 | 0.434 ± 0.0093 | 0.561 ± 0.015 |
| CWILLFGCVWVG | 0.263 ± 0.0084 | 0.1785 ± 0.0003 | 0.335 ± 0.049 | 0.233 ± 0.023 | 0.397 ± 0.033 | 0.221 ± 0.015 | 0.234 ± 0.0095 | 0.336 ± 0.037 |
| FFSFLFLLLFGA |  | 0.566 ± 0.016 | 0.643 ± 0.0069 | 0.556 ± 0.018 | 0.619 ± 0.07 | 0.555 ± 0.016 | 0.5673 ± 0.0056 | 0.617 ± 0.046 |
| FPPCSFLGFLVF |  | 0.69 ± 0.027 | 0.768 ± 0.014 | 0.571 ± 0.023 | 0.73 ± 0.014 | 0.556 ± 0.018 | 0.556 ± 0.014 | 0.688 ± 0.034 |
| GAVGRWGWVSFV |  | 0.699 ± 0.038 | 0.7732 ± 0.0059 | 0.653 ± 0.014 | 0.7883 ± 0.0033 | 0.337 ± 0.0076 | 0.357 ± 0.025 | 0.638 ± 0.052 |
| GFTIFFFFFFFV |  | 0.227 ± 0.043 | 0.234 ± 0.018 | 0.193 ± 0.035 | 0.266 ± 0.045 | 0.287 ± 0.056 | 0.165 ± 0.0033 | 0.264 ± 0.0077 |
| GPPPPPSLLLLC |  | 0.6 ± 0.04 | 0.712 ± 0.0078 | 0.614 ± 0.025 | 0.721 ± 0.011 | 0.201 ± 0.0072 | 0.211 ± 0.015 | 0.345 ± 0.02 |
| GVAVVWVGLGVT |  | 0.325 ± 0.011 | 0.445 ± 0.043 | 0.27 ± 0.018 | 0.474 ± 0.0068 | 0.227 ± 0.013 | 0.262 ± 0.017 | 0.4519 ± 0.0017 |
| LDVGGRRGGEHC |  | 0.598 ± 0.071 | 0.646 ± 0.096 | 0.554 ± 0.024 | 0.6665 ± 0.0011 | 0.583 ± 0.092 | 0.594 ± 0.077 | 0.598 ± 0.011 |
| LFVLVLLCWMLT |  | 0.347 ± 0.038 | 0.462 ± 0.014 | 0.373 ± 0.029 | 0.42739 ± 0.00025 | 0.357 ± 0.012 | 0.34 ± 0.013 | 0.434 ± 0.03 |
| LWGVGFLFVLVG |  | 0.1858 ± 0.0014 | 0.268 ± 0.024 | 0.229 ± 0.036 | 0.403 ± 0.039 | 0.105 ± 0.0094 | 0.131 ± 0.017 | 0.183 ± 0.014 |

| Sequence | protein stability index [1] | protein stability index [2, 3] | protein stability index [2, 4] | protein stability index [2, 5] | protein stability index [2, 6] | protein stability index [2, 7] | protein stability index [2, 8] | protein stability index [2, 9] |
| --- | --- | --- | --- | --- | --- | --- | --- | --- |
| PHSMRTTTIMCS |  | 0.357 ± 0.034 | 0.444 ± 0.021 | 0.296 ± 0.031 | 0.516 ± 0.0075 | 0.214 ± 0.0032 | 0.243 ± 0.056 | 0.436 ± 0.0045 |
| RPPPAANFTRSS |  | 0.655 ± 0.022 | 0.688 ± 0.024 | 0.665 ± 0.016 | 0.698 ± 0.012 | 0.665 ± 0.018 | 0.661 ± 0.0078 | 0.679 ± 0.012 |
| YGETRGGGRGRW |  | 0.587 ± 0.049 | 0.887 ± 0.038 | 0.475 ± 0.034 | 0.766 ± 0.16 | 0.563 ± 0.13 | 0.538 ± 0.12 | 0.65 ± 0.11 |
| YLPRHPLPPFPV | 0.681 ± 0.14 |  |  |  |  |  |  |  |
| YLPWFADLHPGV | 0.737 ± 0.073 |  |  |  |  |  |  |  |
| YLSFDKSLLSQI | 0.662 ± 0.029 |  |  |  |  |  |  |  |
| YLSGHLGCRVRV | 0.651 ± 0.067 |  |  |  |  |  |  |  |
| YLSVPVGPAMAL | 0.643 ± 0.1 |  |  |  |  |  |  |  |
| YMAGGQCDRLPG | 0.677 ± 0.055 |  |  |  |  |  |  |  |
| YNRQVDFECHKF | 0.698 ± 0.044 |  |  |  |  |  |  |  |
| YNVRNVSVHQLG | 0.644 ± 0.015 |  |  |  |  |  |  |  |
| YPALCSRFFAPS | 0.711 ± 0.039 |  |  |  |  |  |  |  |
| YPGSCFLDTGIW | 0.6666 ± 0.0062 |  |  |  |  |  |  |  |
| YPNENFALLTEH | 0.653 ± 0.046 |  |  |  |  |  |  |  |
| YQGSFGLCRLML | 0.808 ± 0.034 |  |  |  |  |  |  |  |
| YRARTADRPRDQ | 0.729 ± 0.039 |  |  |  |  |  |  |  |
| YRIMRRKEKEER | 0.669 ± 0.026 |  |  |  |  |  |  |  |
| YRLAPPPHPPPP | 0.576 ± 0.021 |  |  |  |  |  |  |  |
| YRLVASSHLIFF | 0.661 ± 0.027 |  |  |  |  |  |  |  |
| YRQAAIKNIKRK | 0.683 ± 0.014 |  |  |  |  |  |  |  |
| YRQIIPSFTLGL | 0.715 ± 0.036 |  |  |  |  |  |  |  |
| YRSPRSSSGSSF | 0.67 ± 0.041 |  |  |  |  |  |  |  |
| YSDNIHIEFEDC | 0.737 ± 0.068 |  |  |  |  |  |  |  |

| Sequence | protein stability index [1] | protein stability index [2, 3] | protein stability index [2, 4] | protein stability index [2, 5] | protein stability index [2, 6] | protein stability index [2, 7] | protein stability index [2, 8] | protein stability index [2, 9] |
| --- | --- | --- | --- | --- | --- | --- | --- | --- |
| YSGYRASLVFEI | 0.648 ± 0.099 |  |  |  |  |  |  |  |
| YSIIYATGMRIL | 0.626 ± 0.07 |  |  |  |  |  |  |  |
| YSLETGIFVFHR | 0.7027 ± 0.0068 |  |  |  |  |  |  |  |
| YSLPPAPQPLPP | 0.772 ± 0.092 |  |  |  |  |  |  |  |
| YSPFGKRLLPPC | 0.702 ± 0.057 |  |  |  |  |  |  |  |
| YSTFIPYSPCTA | 0.644 ± 0.013 |  |  |  |  |  |  |  |
| YSVDGTGVGLWV | 0.717 ± 0.016 |  |  |  |  |  |  |  |
| YSWGVLSWLSFG | 0.648 ± 0.0074 |  |  |  |  |  |  |  |
| YTPEVSVFFFRT | 0.6233 ± 0.0014 |  |  |  |  |  |  |  |
| YTSFGSSLIPTT | 0.652 ± 0.074 |  |  |  |  |  |  |  |
| YTSPRSTGPSVG | 0.732 ± 0.012 |  |  |  |  |  |  |  |
| YTTFNLSQTLNG | 0.674 ± 0.023 |  |  |  |  |  |  |  |
| YTWVDKNDRTKR | 0.736 ± 0.11 |  |  |  |  |  |  |  |
| YVFSPLSCWASV |  | 0.692 ± 0.056 | 0.74 ± 0.0086 | 0.608 ± 0.021 | 0.7459 ± 0.0044 | 0.603 ± 0.037 | 0.596 ± 0.017 | 0.695 ± 0.019 |
| YWEVYAGLSLWV | 0.63 ± 0.0048 |  |  |  |  |  |  |  |
| YWGGWCGGWEIG | 0.73 ± 0.034 |  |  |  |  |  |  |  |
| YYAFITERYRHN | 0.6069 ± 0.0046 |  |  |  |  |  |  |  |
| YYCLRVRTINRR | 0.703 ± 0.011 |  |  |  |  |  |  |  |
| YYLCHIEEFLSS | 0.622 ± 0.072 |  |  |  |  |  |  |  |
| YYLPRPPRPTVL | 0.623 ± 0.11 |  |  |  |  |  |  |  |
| YYSTQTQATYRH | 0.6773 ± 0.0025 |  |  |  |  |  |  |  |
